Experimental findings from US20260042834A1, “ANTI-CORTICOTROPIN-RELEASING HORMONE ANTIBODIES AND POLYCYSTIC OVARY SYNDROME” (HBM ALPHA THERAPEUTICS, INC., priority 2022, published 2026) are described below.

The subject of assay [1] is human CRHR2. Description: CRH-induced luciferase reporter blocking assay, CHO-CRE-hCRHR2 cells. Format: cell-based. Conditions: CHO-CRE-hCRHR2 cells, 0.1 nM CRH. Put shortly: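 CHO-CRE reporter cells stably expressing mouse or human CRHR2 were treated with serially diluted antibodies (8 points, 1:4) plus CRH at final 5 nM (mCRHR2) or 0.1 nM (hCRHR2), 4-6 hours at 37° C. CRE-driven luciferase read by luminescence after 10 min with detection reagent.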
On the technique in general: A reporter such as luciferase makes a cellular process visible.

In assay [2] the test system is mouse CRHR2. Description: CRH-induced luciferase reporter blocking assay, CHO-CRE-mCRHR2 cells. Format: cell-based. Conditions: CHO-CRE-mCRHR2 cells, 5 nM CRH. Put shortly:
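CHO-CRE cells stably expressing mouse CRHR2 were seeded overnight, then given serially diluted antibodies (8 points, 1:4) together with CRH at 5 nM final. After 4–6 h at 37 °C, CRE-driven luciferase was read by Bio-Glo luminescence.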

Assay [3] has as its system constitutively high plasma ACTH in Mrap1 KO mice. Description: Mrap1 KO mice constitutively high ACTH model. Format: in vivo, mouse. Conditions: 20 mg/kg and 5 mg/kg, day 2 and day 16. The method, then:
8-10 week old wildtype female C57BL/6 mice were obtained from Charles River Laboratories. Mrap1 KO mice were obtained from Queen Mary University of London, UK. SSR125543A, a small molecule CRHR1 antagonist, was obtained from Axon Medchem (Cat #Axon 1799). Mouse Corticosterone (55-Corms-E01) and adrenocorticotropic hormone (ACTH) ELISA kits (21-ACTHU-E01) were obtained from ALPCO, USA. All procedures were carried out in accordance with the Guide for the Care and Use of Laboratory Animals of the National Institutes of Health. Protocols were approved by Charles River Laboratories Institutional Animal Care and Use Committee (IACUC).
To generate Mrap1 KO mice, Mrap1−/− male mice were bred with Mrap1+/− female mice. Corticosterone hormone replacement was performed by administering 50 μg/ml in drinking water to breeder cages when female mice were pregnant and their pregnancies palpable (approximately embryonic day 10). Drinking water was changed weekly, and treatment was stopped at weaning. Mice were uniquely identified with ear tags at the time of tail clipping to match future genotype with each mouse. DNA was extracted from tail tissue and used to genotype mice.
[…] On day 2 or 3, 14 and 28, 200 μl of blood was collected in EDTA tubes from the submandibular vein of each mouse. Plasma was separated using a refrigerated centrifuge (4° C. at 500×g for 10 min) and snap-frozen in dry ice for subsequent ACTH ELISA measurement.

In assay [4] the test system is human CRHR1 (hUCN1-induced). As to the kind of experiment: Human UCN1-induced luciferase reporter assay, CHO-CRE-hCRHR1 cells. Particulars: Table 10; 1 nM hUCN1. Format: cell-based. The method, then: CHO-CRE-hCRHR1 and CHO-CRE-hCRHR2 cells were harvested with trypsin-EDTA (Life Technologies, Cat #:12604-013). Cells were centrifuged at 1,000 rpm for 5 min and resuspended in growth medium. Cells were counted using a cell counter, seeded at 5,000 cells per 100 μl to 96-well flat plates, and incubated overnight. 50 μl of 4× serially diluted antibody (8 points, 1/3 diluted by growth medium) or CP 376395 hydrochloride (TOCRIS, Cat #:3212) (8 points, 1/10 diluted by growth medium) was added to plates, followed by 50 μl 4×hUCN1 (4× is 4 nM, final is 1 nM) to CHO-CRE-hCRHR1 cells or CHO-CRE-hCRHR2 cells. Plates were then incubated for 4-6 hours at 37° C. in a CO2 incubator. Following this, 60 μl of culture medium was removed, to which was added 60 μl of Bio-Glo luciferase, followed by incubation for 10 min at RT. Plates were then read in a luciferase plate reader (EnVision, PerkinElmer).

Assay [5] concerns the target T1, N-terminal region plus central region, central region only, central region plus C-terminal region of CRH (Homo sapiens, UniProt P06850).
T1 construct: N-terminal region plus the central region (CT biotin), the central region only (NT biotin or CT biotin)
Description: ELISA determining the binding region of CRH. Conditions: dash = no binding. The method, then: Streptavidin (Thermo, Cat: 21125) was diluted in PBS to a concentration of 2 μg/ml. 100 μl of diluted streptavidin was added per well to ELISA microplates, and the plates were incubated overnight at 4° C. Plates were blocked with ELISA blocking solution (containing 2% w/v BSA, 0.05% (v/v) Tween-20, pH 7.4 PBS buffer) at 37° C. for 1 hour, and then incubated with 1 μg/mL N-terminal region plus the central region (CT biotin), the central region only (NT biotin or CT biotin), or the central region plus C-terminal region (NT biotin) of CRH for 1 hour at 37° C. Plates were then washed and incubated with diluted anti-CRH antibody (Ab) at 15 μg/ml (100 nM, 10 diluted, 8 points) for 1 hour at 37° C. Subsequently, plates were washed and incubated with HRP-conjugated goat anti-human IgG (H+L) antibody (Jackson, Cat: 109-035-088) at 37° C. for 1 hour. 100 μL of 3,3′,5,5′-tetramethylbenzidine (TMB) substrate (Biopanda, Cat: TMB-S-003) was added, and the plates were incubated at room temperature for 15 minutes. 100 μL of ELISA stopping solution (Solarbio, Cat #: C1058) was added to terminate the reaction, and the optical density at 450 nm (OD450 nm) was determined by an ELISA plate reader (Molecular Devices, Spectra max 384 plus).
A general note: ELISA stands for enzyme-linked immunosorbent assay.

In assay [6] the target is T2, biotinylated CRH (Homo sapiens, UniProt P06850).
T2 construct: purchased GL Biochem 784751
T2 sequence (P06850 154-194): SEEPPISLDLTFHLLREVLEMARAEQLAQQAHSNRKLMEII
Description: Affinity determination with Octet. Format: binding. The protocol: Octet® Red 96e was used for affinity measurement. Octet® running buffer was prepared by diluting kinetics buffer 10× (Fortebio, Cat #18-1105) in PBS according to the manufacturer's instructions. Two columns of SA sensors (Fortebio, Cat #18-5019) were hydrated in running buffer for 10 mins, one for ligand capturing and the other for reference. Antibodies were 2-fold diluted and added into a 96-well plate. 30 nM biotinylated CRH (GL Biochem, Cat #784751) was captured by the first column of SA sensors for 20 seconds, while reference sensors were dipped into buffer wells. After a 60-second baseline step, sensors were dipped into analyte and buffer wells successively, with the association and dissociation time of 180 seconds and 800 seconds, respectively. Sensors were regenerated in glycine pH1.5 (Cytiva, Cat #BR-1003-54) before the next cycle. […] Signals of reference wells and reference sensors were subtracted by selecting “Double reference” before data fitting.

Where [7] appears, read: central plus C-terminal region CRH peptide, NT-biotin (SEQ ID NO: 483), read-out: ELISA EC50 C-Ter-CRH (NT-Bion).
[8] abbreviates: central region CRH peptide, CT-biotin (SEQ ID NO: 485), read-out: ELISA EC50 Central-CRH (CT-Bion).
[9] abbreviates: central region CRH peptide, NT-biotin (SEQ ID NO: 484), read-out: ELISA EC50 Central-CRH (NT-Bion).

Where two headings read alike, the source gives them in different places.

One may read the IC50 as the point on the concentration scale where inhibition reaches its midpoint. In general, EC50 refers to the concentration at which the effect is half-maximal. As a reminder, the kon is the rate constant with which the complex forms. Low values mean slow association, high ones fast association.

B1: PR302038: humanized variant of Series 5 mAb PR301777; VH SEQ ID NO: 256, VL SEQ ID NO: 311 (antibody, V domains shown)
VH: EMQLVESGGGLVQPGGSLRLSCAASGFTFSNYWMNWVRQAPGKGLEWVAEIRLKSNNYATHYAESVKGRFTISRDDSKSSVYLQMNSLKTEDTAVYYCTVGTLVYWGQGTLVTVSS
VL: EIVLTQSPATLSLSPGERATLSCRASQSVSTSTYNYMHWFQQKPGQAPRLLIKFASNLESGIPARFSGSGSGTDFTLTISSLEPEDTAVYYCQHSWEIPYTFGQGTKLEIK
modifications: PR302036 VH, PR302038 VH, PR302041 VH; PR302031 VL, PR302038 VL, PR302045 VL, PR302052 VL, PR302066 VL
In the case of B1, the values for the concentration for half-maximal inhibition (IC50) in assay [1] and in assay [2] were 5.96 nM and 6.17 nM, respectively. In addition, in assay [3], the “plasma ACTH concentrations in Mrap1 KO mice, dose dependence” value is “reduced plasma ACTH concentrations in Mrap1 KO mice, in a dose dependent manner”.

B2: PR302309-8: humanized variant of Series 7 mAb PR302309; VH SEQ ID NO: 261, VL SEQ ID NO: 318 (antibody, V domains shown)
VH: QIQLVQSGSELKKPGASVKVSCKASGYTFTNYGMNWVRQAPGQGLEWMGWINTYTGEPIYTDDFKGRFVFSLDTSVSTAYLQISSLKAEDTAVYYCSRSTMITTGGVFAYWGQGTLVTVSS
VL: DVVMTQSPLSLPVTLGQPASISCRSSQTIVHSDGNTYLEWYQQRPGQSPRLLIYKVSNRFSGVPDRFSGSGSGTDFTLKISRVEAEDLGVYYCFQGSHVPWTFGGGTKVEIK
modifications: PR302309-10 VH, PR302309-11 VH, PR302309-12 VH, PR302309-14 VH,PR302309-7 VH, PR302309-8 VH, PR302309-9 VH; PR302309-17 VL, PR302309-18 VL, PR302309-19 VL, PR302309-2 VL,PR302309-8 VL
On to B2, for which, in assay [4], the “CHO-CRE-hCRHR1 1 nM hUCH1 IC50” value is reported as “No Inhibition”. For the same molecule, the EC50 in assay [5] (setting [7]), in assay [5] (setting [8]) and in assay [5] (setting [9]) was more than 100 nM in each case. Further, the “kdis” value in assay [6] amounted to 0.000136 s⁻¹. Further, the on-rate constant (kon) in assay [6] amounted to 266000 M⁻¹ s⁻¹.

B3: PR302309-11: humanized variant of Series 7 mAb PR302309; VH SEQ ID NO: 261, VL SEQ ID NO: 315 (antibody, V domains shown)
VH: QIQLVQSGSELKKPGASVKVSCKASGYTFTNYGMNWVRQAPGQGLEWMGWINTYTGEPIYTDDFKGRFVFSLDTSVSTAYLQISSLKAEDTAVYYCSRSTMITTGGVFAYWGQGTLVTVSS
VL: DIVMTQTPLSSPVTLGQPASISCRSSQTIVHSDGNTYLEWLQQRPGQPPRLLIYKVSNRFSGVPDRFSGSGAGTDFTLKISRVEAEDVGVYYCFQGSHVPWTFGGGTKVEIK
modifications: PR302309-10 VH, PR302309-11 VH, PR302309-12 VH, PR302309-14 VH,PR302309-7 VH, PR302309-8 VH, PR302309-9 VH; PR302309-11 VL, PR302309-5 VL
As for B3, the “CHO-CRE-hCRHR1 1 nM hUCH1 IC50” value in assay [4] is on record as “No Inhibition”. The EC50 in assay [5] (setting [7]), in assay [5] (setting [8]) and in assay [5] (setting [9]) was more than 100 nM each time. The “kon” value in assay [6] was determined as 154000 M⁻¹ s⁻¹.

B4: PR302309-18: humanized variant of Series 7 mAb PR302309; VH SEQ ID NO: 263, VL SEQ ID NO: 318 (antibody, V domains shown)
VH: QVQLVQSGAEVKKPGASVKVSCKASGYTFTNYGMNWVRQAPGQRLEWMGWINTYTGEPIYTDDFKGRVTITRDTSASTAYMELSSLRSEDTAVYYCARSTMITTGGVFAYWGQGTLVTVSS
VL: DVVMTQSPLSLPVTLGQPASISCRSSQTIVHSDGNTYLEWYQQRPGQSPRLLIYKVSNRFSGVPDRFSGSGSGTDFTLKISRVEAEDLGVYYCFQGSHVPWTFGGGTKVEIK
modifications: PR302309-15 VH, PR302309-18 VH; PR302309-17 VL, PR302309-18 VL, PR302309-19 VL, PR302309-2 VL,PR302309-8 VL
Turning to B4, the EC50 in assay [5] (setting [7]), in assay [5] (setting [8]) and in assay [5] (setting [9]) was more than 100 nM each time. In assay [6], the “kdis” value is less than 1e-07 s⁻¹. For the same molecule, the association rate constant (kon) in assay [6] amounted to 126000 M⁻¹ s⁻¹.
